Target: Human recombinant Sortilin chimera protein from R&D Systems (#3154-ST) (human) (UniProt Q99523)
Assay: SPR (Biacore), Sortilin immobilized on CM5 chip, ligand injected

Sequence of Human recombinant Sortilin chimera protein from R&D Systems (#3154-ST) (human) (Q99523 78-755, change not shown): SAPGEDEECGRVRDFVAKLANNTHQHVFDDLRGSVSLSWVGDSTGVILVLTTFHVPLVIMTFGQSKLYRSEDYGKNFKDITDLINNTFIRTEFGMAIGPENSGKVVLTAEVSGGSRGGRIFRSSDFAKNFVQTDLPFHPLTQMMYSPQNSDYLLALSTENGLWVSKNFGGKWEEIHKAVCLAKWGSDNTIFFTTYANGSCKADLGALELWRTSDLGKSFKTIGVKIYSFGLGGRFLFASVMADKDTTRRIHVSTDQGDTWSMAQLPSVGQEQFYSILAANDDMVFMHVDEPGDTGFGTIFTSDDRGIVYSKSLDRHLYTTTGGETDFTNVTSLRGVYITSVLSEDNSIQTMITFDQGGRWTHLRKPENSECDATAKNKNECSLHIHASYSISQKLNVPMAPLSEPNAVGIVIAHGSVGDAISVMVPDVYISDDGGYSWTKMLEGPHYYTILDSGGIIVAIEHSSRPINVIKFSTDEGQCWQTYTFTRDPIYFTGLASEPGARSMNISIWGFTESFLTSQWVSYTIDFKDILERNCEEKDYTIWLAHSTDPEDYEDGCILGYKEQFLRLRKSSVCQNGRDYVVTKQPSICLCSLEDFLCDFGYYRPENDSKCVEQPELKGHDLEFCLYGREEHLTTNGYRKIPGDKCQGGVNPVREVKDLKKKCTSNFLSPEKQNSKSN

Substance	Kd [µM]
Neurotensin, P30990 151-163 (peptide; modification not given)	0.117
Receptor-Associated Protein (RAP) (ligand)	0.0042
